Measured values from PMC12506534 (The Journal of Biological Chemistry, 2025).
“And” between values parts separate entries of the source, which are not always exact repeats. Identical values can stand only once.

Biological target: the molecule itself
Experiment: SEC; oligomeric forms of the separately purified proteins; Superdex 200 Increase 10/300 GL, 20 mM HEPES pH 7.5, 150 mM NaCl, 1 mM DTT (Fig. S1, A and B)

B1: Get3(D57N), Saccharomyces cerevisiae (enzyme, S. cerevisiae, UniProt Q12154 1-354, looked up)
chain: MDLTVEPNLHSLITSTTHKWIFVGGKGGVGKTTSSCSIAIQMALSQPNKQFLLISTNPAHNLSDAFGEKFGKDARKVTGMNNLSCMEIDPSAALKDMNDMAVSRANNNGSDGQGDDLGSLLQGGALADLTGSIPGIDEALSFMEVMKHIKRQEQGEGETFDTVIFDTAPTGHTLRFLQLPNTLSKLLEKFGEITNKLGPMLNSFMGAGNVDISGKLNELKANVETIRQQFTDPDLTTFVCVCISEFLSLYETERLIQELISYDMDVNSIIVNQLLFAENDQEHNCKRCQARWKMQKKYLDQIDELYEDFHVVKMPLCAGEIRGLNNLTKFSQFLNKEYNPITDGKVIYELEDKE
notes: Get3, S. cerevisiae, UniProt Q12154, full length, with D57N; Purified in dimeric and tetrameric forms; the dimer was used to form the complex with Get4/5; ATP and MgCl2 were present in the complex, cryo-EM and MST samples; also called D57N variant; ATPase-deficient D57N variant; source: E. coli Rosetta (DE3), purified (Ni-NTA, SEC)
stoichiometry N: 2 and 4
